Data on 31 molecules can be found in patent US20260242478A1 (published 2026).

The target of experiment [1] is T1, PSMA Fab.
T1 construct: Biotinylated and captured on neutravidin coated plates in the phage ELISA; also called 006 PSMA Fab; Anti-PSMA Fab
Kind of experiment: phage ELISA; biotinylated PSMA Fab on neutravidin plate, clonal phage supernatant, anti-M13 HRP; no PSMA antigen.
Method: (§1) Clonal phage were harvested as crude supernatants and screened via standard ELISAs. […] Prior to the addition of clonal phage. wells were incubated with blocking buffer and PSMA antigen or blocking buffer alone. Without washing or aspirating, clonal phage supernatants were then added to the wells and incubated for a short time. Wells were then washed followed by detection of bound phage using a horse radish conjugated anti-M13 antibody.

In experiment [2] the target is T1, PSMA Fab. The experiment is described as follows: phage ELISA; biotinylated PSMA Fab on neutravidin plate, clonal phage supernatant, anti-M13 HRP; wells pre-incubated with PSMA antigen as competitor. In general terms: An ELISA detects its analyte on a solid surface through an enzyme-linked reagent.
Method: as §1
Experiment [3] has as its target T2, PSMA Fab (006 PSMA Fab) (biotinylated (site not stated)).
T2 construct: also called Anti-PSMA Fab
Kind of experiment: phage ELISA on captured PSMA Fab, wells pre-incubated with PSMA antigen as competitor.

Experiment [4] addresses T2, PSMA Fab (006 PSMA Fab). The experiment is described as follows: phage ELISA, clonal phage on biotinylated PSMA Fab captured on neutravidin plate, anti-M13 HRP detection.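 Further: crude clonal phage supernatants added to wells preincubated with PSMA antigen in blocking buffer or with blocking buffer only, giving a competition and a no-competitor control.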
Method: as §1
Experiment [5] deals with T3, PSMA Fab.
T3 construct: also called Anti-PSMA Fab; 006 PSMA Fab
Kind of experiment: clonal phage ELISA on captured PSMA Fab pre-incubated with PSMA antigen (competitor: PSMA).
Method: as §1

In experiment [6] the target is T3, PSMA Fab. The experiment is described as follows: clonal phage ELISA on biotinylated PSMA Fab captured on neutravidin, anti-M13 HRP detection.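 Further: crude clonal phage supernatants added to wells pretreated with PSMA antigen in blocking buffer or with blocking buffer only, then briefly incubated.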
Method: as §1

Where no end group is shown, it is not given here.

B1: Phage-2426 (peptide)
peptide: LWMSCIPPWMCANV
modifications: cysteine pairing not given here; also: displayed as fusion to phage pIII
notes: Peptide-180 library clone, tested as clonal phage (peptide fused to pIII)
For the molecule B1, the figures for the “phage binding ELISA signal” value in experiment [1] and in experiment [2] were 1.33 and 0.137, respectively.

Turning to LVHMCKPAWMCTNL [Phage-2340], the “phage binding ELISA signal (Anti-PSMA Fab pre-incubated with PSMA antigen)” value in experiment [3] was 0.0708. For the same molecule, the “Phage binding ELISA signal, Anti-PSMA Fab” value in experiment [4] was 1.44.

B2: Phage-2422 (peptide)
peptide: WTNTCIPMWMCEGF
notes: as for B1
As to B2, the “phage binding ELISA signal” value in experiment [1] turned out to be 1.33; in experiment [2], 0.0808.

B3: Phage-2358 (peptide)
peptide: PVKWCVPPWMCAAT
modifications: cysteine pairing not given here; also: displayed on bacteriophage by fusion to pIII
notes: Peptide-180 library clone, tested as clonal phage supernatant (peptide fused to the pIII filament of the bacteriophage)
As to B3, in experiment [5], the “Phage binding ELISA signal, Anti-PSMA Fab with PSMA antigen” value came to 0.0663. Moreover, in experiment [6], the “Phage binding ELISA signal, Anti-PSMA Fab” value worked out at 1.42.

MVKLCIPEWMCDRQ [Phage-2337]: the “phage binding ELISA signal (Anti-PSMA Fab pre-incubated with PSMA antigen)” value in experiment [3] came to 0.0609. In addition, the “Phage binding ELISA signal, Anti-PSMA Fab” value in experiment [4] came out at 1.44.

B4: Phage-2429 (peptide)
peptide: GEKWCIPEWMCVTT
notes: as for B1
Consider B4, for which the figures for the “phage binding ELISA signal” value in experiment [1] and in experiment [2] were 1.32 and 0.0637, respectively.

Regarding EGISCVPNWMCVGF [Phage-2339], the “phage binding ELISA signal (Anti-PSMA Fab pre-incubated with PSMA antigen)” value in experiment [3] came to 0.119. Moreover, the “Phage binding ELISA signal, Anti-PSMA Fab” value in experiment [4] worked out at 1.44.

B5: Phage-2351 (peptide)
peptide: PMKWCIPEWMCIAS
notes: as for B3
In the case of B5, the “Phage binding ELISA signal, Anti-PSMA Fab with PSMA antigen” value in experiment [5] is 0.102. For the same molecule, in experiment [6], the “Phage binding ELISA signal, Anti-PSMA Fab” value was 1.43.

B6: Phage-2356 (peptide)
peptide: VPKWCTPTWMCIHM
notes: as for B3
With B6, the “Phage binding ELISA signal, Anti-PSMA Fab with PSMA antigen” value in experiment [5] came out at 0.0649. In addition, the “Phage binding ELISA signal, Anti-PSMA Fab” value in experiment [6] amounted to 1.42.

GEIWCTPSWMCWGL [Phage-2341]: the “phage binding ELISA signal (Anti-PSMA Fab pre-incubated with PSMA antigen)” value in experiment [3] turned out to be 0.0653. In experiment [4], the “Phage binding ELISA signal, Anti-PSMA Fab” value was 1.43.

B7: Phage-2353 (peptide)
peptide: SEEWCIPPWMCLGR
notes: as for B3
As for B7, the “Phage binding ELISA signal, Anti-PSMA Fab with PSMA antigen” value in experiment [5] is 0.0756. Besides, the “Phage binding ELISA signal, Anti-PSMA Fab” value in experiment [6] stood at 1.43.

B8: Phage-2352 (peptide)
peptide: IDHWCTPAWMCRGF
notes: as for B3
B8: the “Phage binding ELISA signal, Anti-PSMA Fab with PSMA antigen” value in experiment [5] was 0.0775. Further, the “Phage binding ELISA signal, Anti-PSMA Fab” value in experiment [6] came out at 1.43.

B9: Phage-2421 (peptide)
peptide: EFKWCIPKWMCMVD
notes: as for B1
With B9, the entries for the “phage binding ELISA signal” value in experiment [1] and in experiment [2] were 1.33 and 0.0948, respectively.

B10: Phage-2427 (peptide)
peptide: EYKWCVPIWMCAYD
modifications: cysteine pairing not given here; also: displayed as fusion to phage pIII
notes: as for B1
Turning to B10, the “phage binding ELISA signal” value was 1.33 in experiment [1] and 0.0826 in experiment [2].

B11: Phage-2347 (peptide)
peptide: SENWCIPNWMCSGL
notes: as for B3
B11: the “Phage binding ELISA signal, Anti-PSMA Fab with PSMA antigen” value in experiment [5] was determined as 0.0725. Further, the “Phage binding ELISA signal, Anti-PSMA Fab” value in experiment [6] is 1.43.

B12: Phage-2354 (peptide)
peptide: NDHWCIPPWMCAPY
modifications: cysteine pairing not given here; also: displayed on bacteriophage by fusion to pIII
notes: as for B3
B12: the “Phage binding ELISA signal, Anti-PSMA Fab with PSMA antigen” value in experiment [5] is 0.0707. In addition, in experiment [6], the “Phage binding ELISA signal, Anti-PSMA Fab” value was determined as 1.42.

B13: Phage-2424 (peptide)
peptide: LVNWCTPPWMCWHD
notes: as for B1
With B13, the “phage binding ELISA signal” value in experiment [1] was 1.33; in experiment [2], 0.0827.

B14: Phage-2345 (peptide)
peptide: FDMLCNPKWMCEGF
notes: as for B3
On to B14, for which the “Phage binding ELISA signal, Anti-PSMA Fab with PSMA antigen” value in experiment [5] worked out at 0.0643. In addition, the “Phage binding ELISA signal, Anti-PSMA Fab” value in experiment [6] worked out at 1.43.

B15: Phage-2355 (peptide)
peptide: FENWCTPSWMCSGF
notes: as for B3
Consider B15, for which, in experiment [5], the “Phage binding ELISA signal, Anti-PSMA Fab with PSMA antigen” value amounted to 0.0807. Moreover, the “Phage binding ELISA signal, Anti-PSMA Fab” value in experiment [6] is 1.42.

B16: Phage-2423 (peptide)
peptide: LTNWCTPQWMCLGF
notes: as for B1
For B16, the “phage binding ELISA signal” value in experiment [1] turned out to be 1.33; in experiment [2], 0.0731.

As for WYKWCTPAWMCEIS [Phage-2338], in experiment [3], the “phage binding ELISA signal (Anti-PSMA Fab pre-incubated with PSMA antigen)” value worked out at 0.143. In addition, in experiment [4], the “Phage binding ELISA signal, Anti-PSMA Fab” value was 1.44.

Take SDTWCIPAWMCEGR [Phage-2343]: the “phage binding ELISA signal (Anti-PSMA Fab pre-incubated with PSMA antigen)” value in experiment [3] was 0.0667. Also, the “Phage binding ELISA signal, Anti-PSMA Fab” value in experiment [4] is 1.43.

B17: Phage-2425 (peptide)
peptide: DENWCKPLWMCEGF
notes: as for B1
As for B17, the “phage binding ELISA signal” value stood at 1.33 in experiment [1] and 0.0991 in experiment [2].

As for ELMWCIPPWMCEHS [Phage-2342], the “phage binding ELISA signal (Anti-PSMA Fab pre-incubated with PSMA antigen)” value in experiment [3] came out at 0.0888. The “Phage binding ELISA signal, Anti-PSMA Fab” value in experiment [4] came to 1.43.

B18: Phage-2357 (peptide)
peptide: AERWCIPSWMCELA
notes: as for B3
B18: the “Phage binding ELISA signal, Anti-PSMA Fab with PSMA antigen” value in experiment [5] was 0.0756. The “Phage binding ELISA signal, Anti-PSMA Fab” value in experiment [6] amounted to 1.42.

B19: Phage-2346 (peptide)
peptide: WDRLCIPPWMCDVM
notes: as for B3
On to B19, for which, in experiment [5], the “Phage binding ELISA signal, Anti-PSMA Fab with PSMA antigen” value is 0.0803. The “Phage binding ELISA signal, Anti-PSMA Fab” value in experiment [6] was determined as 1.43.

B20: Phage-2348 (peptide)
peptide: MEKWCTPSWMCQWM
notes: as for B3
For the molecule B20, the “Phage binding ELISA signal, Anti-PSMA Fab with PSMA antigen” value in experiment [5] is 0.0828. In addition, in experiment [6], the “Phage binding ELISA signal, Anti-PSMA Fab” value turned out to be 1.43.

B21: Phage-2344 (peptide)
peptide: LMNWCTPAWMCTGF
notes: as for B3
Turning to B21, the “Phage binding ELISA signal, Anti-PSMA Fab with PSMA antigen” value in experiment [5] turned out to be 0.0919. For the same molecule, the “Phage binding ELISA signal, Anti-PSMA Fab” value in experiment [6] amounted to 1.43.

B22: Phage-2428 (peptide)
peptide: ADRLCIPPWMCEMK
notes: as for B1
Regarding B22, the “phage binding ELISA signal” value in experiment [1] came to 1.33; in experiment [2] it was 0.0685.

B23: Phage-2349 (peptide)
peptide: LSNWCVPLWMCEMV
notes: as for B3
As for B23, in experiment [5], the “Phage binding ELISA signal, Anti-PSMA Fab with PSMA antigen” value was found to be 0.0796. For the same molecule, the “Phage binding ELISA signal, Anti-PSMA Fab” value in experiment [6] was determined as 1.43.

B24: Phage-2350 (peptide)
peptide: MDRWCIPEWMCARH
modifications: cysteine pairing not given here; also: displayed on bacteriophage by fusion to pIII
notes: as for B3
As to B24, the “Phage binding ELISA signal, Anti-PSMA Fab with PSMA antigen” value in experiment [5] came out at 0.0537. In addition, the “Phage binding ELISA signal, Anti-PSMA Fab” value in experiment [6] was found to be 1.43.
